This note sets out measurements from US12331110B2, “Monoclonal antibodies against endotrophin and the use thereof” (THE BOARD OF REGENTS OF THE UNIVERSITY OF TEXAS SYSTEM, priority 2018, dated 2025).

Where a chain is given by its changes, count along the chain named.

The test system of one test is MCF7 cells. The experiment in a line: MCF7 tumor growth in nude mice. The class given is in vivo. The settings on record: 2.5 mg/kg cisplatin once a week, estradiol pellet. As for the experimental part: FIGS. 5A-C. Antibody effects on ETP-MCF7 cells in vivo. (FIG. 5A) ETP transfected MCF7 cells (2×10^6 cells) were implanted into nude mice. An estradiol pellet (0.72 mg) was implanted into nude mice. Then (i) 20 mg/kg ETPmAb4, (ii) 10 mg/kg ETPmAb4 with 10 mg/kg control IgG, (iii) 5 mg/kg ETPmAb4 with 15 mg/kg control IgG, (iv) 2 mg/kg ETPmAb4 with 18 mg/kg control IgG, and (v) 20 mg/kg control IgG (twice a week) were injected after 10-days implantation for 5-weeks. Tumor volume was determined by caliper measurement. Data was represented as mean±SD (n=5/group), and *** p<0.0001 by ANOVA followed by Newman-Keuls multiple comparison test. (FIG. 5B) Total RNA was prepared from tumor tissues from ETP transfected MCF7, ETPmAb4 treatment mice. The EMT markers genes Twist, Snail, Cdh2 and Cdh 1 were determined by qRT-PCR, then normalized to GAPDH. […] Tumor volume was determined by caliper measurement. […]
(§1) Animal experiments. […] Tumors were measured twice a week, beginning 10 days after injection, and tumor volume was calculated by length×(width) 2/2 (mm^3).
(§2) Analysis of Tumor Progression. Tumor onset was monitored twice weekly by palpation. Tumor sizes were measured using a digital caliper twice weekly and the volumes were calculated as length× width2)/2. […] Animals were sacrificed when the tumor burden visibly affected the host, or when the tumors reached the IACUC pre-determined limit of 20 mm along one axis. […]

The next test deals with MDA-MB-231 cells. The test is described as follows: MDA-MB-231 tumor growth in nude mice. The class given is in vivo. Particulars: 2.5 mg/kg cisplatin. Here is the method:
FIGS. 6A-D. The antibody effects on MDA-MB-231 cells in vivo. (FIG. 6A) MDA-MB-231 cells (2×10^6 cells) were implanted into nude mice. Then 2.5 mg/kg of cisplatin and 20 mg/kg of ETPmAb4 antibody (twice a week) were injected after 10-days implantation for 5-weeks. Tumor volume was determined by caliper measurement. The insert reflects a simplified analysis of control antibody versus ETPmAb4 with associated statistics. (FIG. 6B) MDA-MB-231 cells (2×10^6 cells) were implanted into nude mice. Treatment was started when the tumor volume was over 30 mm^3. At that point, 2.5 mg/kg of cisplatin and 20 mg/kg of ETPmAb4 antibody (twice weekly) were injected for 5-weeks. Tumor volumes were determined by caliper measurements. The insert reflects a simplified analysis of control antibody versus ETPmAb4 with associated statistics. (FIG. 6C) SKOV3 cells (2×10^6 cells) were implanted into nude mice. Then 2.5 mg/kg of cisplatin and 20 mg/kg of ETPmAb4 antibody (twice weekly) were injected 10-days after implantation for 5-weeks. Tumor volumes were determined by caliper measurements. The insert reflects a simplified analysis of control antibody versus ETPmAb4 with associated statistics. (FIG. 6D) MDA-MB-231 cells (2×10^6 cells) were implanted into nude mice. Then 2.5 mg/kg of cisplatin, 20 mg/kg of ETPmAb4 antibody and 20 mg/kg of humanized ETPmAb4 antibody (twice a week) were injected after 10-days implantation for 5-weeks. Tumor volume was determined by caliper measurement. […]
as §1, §2
After humanization, the binding affinity of hETPmAb4 to endotrophin was measured in Octet RED96. […]

Test [1] concerns ETP transfected MCF7 cells. The test is described as follows: ETP transfected MCF7 tumor growth in nude mice. It counts as in vivo. The settings on record: 2.5 mg/kg cisplatin once a week. Here is the method: FIGS. 5A-C. Antibody effects on ETP-MCF7 cells in vivo. (FIG. 5A) ETP transfected MCF7 cells (2×10^6 cells) were implanted into nude mice. An estradiol pellet (0.72 mg) was implanted into nude mice. Then (i) 20 mg/kg ETPmAb4, (ii) 10 mg/kg ETPmAb4 with 10 mg/kg control IgG, (iii) 5 mg/kg ETPmAb4 with 15 mg/kg control IgG, (iv) 2 mg/kg ETPmAb4 with 18 mg/kg control IgG, and (v) 20 mg/kg control IgG (twice a week) were injected after 10-days implantation for 5-weeks. Tumor volume was determined by caliper measurement. Data was represented as mean±SD (n=5/group), and *** p<0.0001 by ANOVA followed by Newman-Keuls multiple comparison test. (FIG. 5B) Total RNA was prepared from tumor tissues from ETP transfected MCF7, ETPmAb4 treatment mice. The EMT markers genes Twist, Snail, Cdh2 and Cdh 1 were determined by qRT-PCR, then normalized to GAPDH. E-CAD immunofluorescence staining for tumor tissues from ETP transfected MCF7 and ETPmAb4 treatment tumor. (FIG. 5C) MCF7 and ETP transfected MCF7 cells (2×10^6 cells) were implanted into nude mice. An estradiol pellet (0.72 mg) was implanted into nude mice. Then 20 mg/kg of antibody ETPmAb4 (twice a week), and 2.5 mg/kg of cisplatin (once a week) were injected after 10-days implantation for 6-weeks. Tumor volume was determined by caliper measurement. Data was represented as mean±SD (n=5/group), and *** p<0.0001 by ANOVA followed by Newman-Keuls multiple comparison test.
Animal experiments. NU/NU nude female mice were purchased from Charles River (Crl: NU-Foxnlnu; Strain Code 088 (Homozygous)). Breast cancer cells (2×10^6 cells) were implanted by intraductal injection. All cell lines were mixed on ice with 1×PBS and Matrigel. Then 100 μL of mixture was injected into mice. Tumors were measured twice a week, beginning 10 days after injection, and tumor volume was calculated by length×(width) 2/2 (mm^3).
Analysis of Tumor Progression. Tumor onset was monitored twice weekly by palpation. Tumor sizes were measured using a digital caliper twice weekly and the volumes were calculated as length× width2)/2. Inguinal tumors were weighted to determine tumor burden. Animals were sacrificed when the tumor burden visibly affected the host, or when the tumors reached the IACUC pre-determined limit of 20 mm along one axis.
As a next step, whether the anti-endotrophin antibodies effectively curb the aggressive tumor growth observed in endotrophin overexpressing MCF-7 cells was examined. To boost the growth rate of the tumor cells, these assays were performed in the presence of estradiol pellets. Cells (2×10^6 cells) were injected into nude mice and their tumor growth was monitored over time, based on a twice weekly injection of either a control monoclonal preparation, or ETPmAb4; in all cases, a total of 20 mg/kg of antibody was used. The dose dependence was tested by either injecting 20 mg/kg of control antibody, 20 mg/kg of ETPmAb4, or a mixture of the two with decreasing levels of control antibody mixed with increasing levels of ETPmAb4.
To test this, MCF7 cells were used with or without endotrophin overexpression, and the cells were transplanted into nude mice, in the presence of estradiol pellets (FIG. 5C). […] As expected, MCF7 cells harboring an excess in endotrophin grew very aggressively (FIG. 5C; red line).

Test [2] addresses T1, recombinant endotrophin protein (Homo sapiens, UniProt P12111).
T1 construct: the latter consisting of 77 amino acids at the carboxy-terminal of the COL6α3 chain; CD33 signal peptide (N, cleaved yes); His-tag with EK-cleavage site (N, cleaved yes); purchased Sino Biological, Beijing, China; host or cells: HEK293
The experiment in a line: Affinity measurement with BLI (Octet RED96). The settings on record: Octet (96-Red), 1:1 binding model. As for the experimental part: FIGS. 12A-B. Kinetic sensorgrams for ETP-mAb4 (FIG. 12A) and each of the humanized antibodies (FIG. 12B). […]
For antibody affinity measurement, antibody (30 μg/mL) was loaded onto the protein A biosensors for 4 min. Following a short baseline in kinetics buffer, the loaded biosensors were exposed to a series of recombinant endotrophin protein at 0.1-200 nM and background subtraction was used to correct for sensor drifting. All experiments were performed with shaking at 1,000 rpm. Background wavelength shifts were measured from reference biosensors that were loaded only with antibody. Kinetic sensorgrams for each antibody are shown in FIGS. 12A&B. ForteBio's data analysis software was used to fit the data to a 1:1 binding model to extract an association rate and dissociation rate. The Kd was calculated using the ratio of koff/kon and the estimated values of […] for endotrophin ETP-mAb4 and 4 humanized ETP-hMab4 antibodies are listed in Table 4.
(In general: BLI is a label-free optical method that tracks binding on a fibre tip over time.)

T1 sequence (P12111 3101-3177): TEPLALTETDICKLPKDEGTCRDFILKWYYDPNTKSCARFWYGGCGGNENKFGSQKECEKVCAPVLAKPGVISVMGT

Consider `N.N.[Cl][Pt][Cl]` [cisplatinum, cisplatin, reference compound], for which the “lesion growth, cisplatinum” value in the test on MCF7 cells was “significantly curbed lesion growth”. Moreover, the “lesion growth, cisplatinum alone or with control antibodies” value in the test with MDA-MB-231 cells was “reduced”. For the same molecule, the “lesion growth, cisplatinum alone or with control antibody” value in test [1] is “moderately reduced”.

B1: ETP-mAb4.4: humanized IgG1 version of ETPmAb4; VH SEQ ID NO: 161, VL SEQ ID NO: 158 (antibody, V domains shown)
VH: EVQLLESGGGLVQPGGSLRLSCAASGFSFSSGYYICWVRQAPGKGLEWIACIYGGNNNPYYANWVNGRFTTSRDNSKNTLYLQMNSLRAEDTAVYYCARKDINIGGAYELWGQGTLVTVSS
VL: DIQMTQSPSSLSASVGDRVTITCQASQSISSSYLSWYQQKPGKAPKLLIYKASTLASGVPSRFSGSGSGTDFTLTISSLQPEDFATYYCQYSDWANSYGNAFGGGTKVEIK
modifications: human IgG1 constant regions
As for B1, in test [2], the kdis was 3.28 E−04 1/s and the kon was 1.30 E+05 1/Ms.

B2: ETP-mAb4.2: humanized IgG1 version of ETPmAb4; VH SEQ ID NO: 159, VL SEQ ID NO: 158 (antibody, V domains shown)
VH: B1 VH with N57S, T71I
VL: B1 VL
modifications: human IgG1 constant regions
For the molecule B2, in test [2], the kdis was 3.05 E−04 1/s and the kon is given as 1.23 E+05 1/Ms.

B3: ETP-mAb4.1: humanized IgG1 version of ETPmAb4; VH SEQ ID NO: 157, VL SEQ ID NO: 158 (antibody, V domains shown)
VH: B1 VH with T71I
VL: B1 VL
modifications: human IgG1 constant regions
With B3, in test [2], the kdis is listed as 2.35 E−04 1/s and the kon is 1.16 E+05 1/Ms.

B4: ETP-mAb4.5: humanized IgG1 version of ETPmAb4; VH SEQ ID NO: 162, VL SEQ ID NO: 158 (antibody, V domains shown)
VH: B1 VH with S28T, N57S, T71I
VL: B1 VL
modifications: human IgG1 constant regions
With B4, in test [2], the kdis was 2.23 E−04 1/s and the kon is 1.16 E+05 1/Ms.
